Test results as given in article PMC7870846, “Incorporation of sensing modalities into de novo designed fluorescence-activating proteins” (Nature Communications, 2021).

Assays:
[1] = Fluorescence intensity assays of mFAP variants; type: biochemical; conditions: neutral pH, DFHBI
Description: To measure fluorescence intensities of the phenolate form of chromophores, fluorescence was measured on a Synergy Neo2 hybrid multi-mode reader (BioTek) in flat bottom, black polystyrene, non-binding surface 96-well microplates (Corning 3650). Fluorescence intensity was measured in triplicate by exciting at λex = 484 nm and measuring fluorescence emission at λem = 505 nm (or λem = 511 nm for clones harboring the W27 mutation) (Supplementary Fig. 1g, h). The W27 mutation redshifts the peak emission wavelength from λem = ~505 nm to λem = ~511 nm, presumably due to the W27 indole ring donating a hydrogen bond to the imidazolinone moiety of the deprotonated state of DFHBI, which stabilizes the chromophore conjugated π–electron system in the excited state causing the redshift in emission. Fifteen microliters of small-scale purified protein[49] was combined with 185 μL of Na2HPO4-citrate (pH 7.36) buffer supplemented with 150 mM NaCl and 108 nM DFHBI for a final concentration of 100 nM DFHBI. In measuring the excitation spectra from λem = 525 nm of each clone in triplicate (Supplementary Fig. 1i), 30.0 μL of large-scale purified protein[49] was combined with 170 μL of 25.0 mM Tris (pH 8.00) supplemented with 100 mM NaCl and 914 nM DFHBI for a final concentration of 7.77 μM protein and 777 nM DFHBI. In measuring the fluorescence intensity at λex = 484 nm and λem = 509 nm of each clone in triplicate (Supplementary Fig. 1j), 30.0 μL of large-scale purified protein[49] was combined with 170 μL of 25.0 mM Tris (pH 8.00) supplemented with 100 mM NaCl and 653 nM DFHBI for a final concentration of 5.55 μM protein and 555 nM DFHBI. In measuring fluorescence intensity at λex = 468 nm and λem = 530 nm of each clone in technical triplicate (Supplementary Fig. 1k), 24.0 μL of 35.4 µM large-scale purified protein[49] was combined with 1.00 μL of 1.25 µM DFHBI or 1.00 μL of 1.25 µM DFHBI-1T (Lucerna) (from […] chromophore stock solutions dissolved in 0.5% DMSO and 99.5% high-salt Tev cleavage buffer [25.0 mM Tris, 100 mM NaCl, pH 8.00]) for final concentrations of 34.0 μM protein and 50.0 nM chromophore. The mFAP9–DFHBI complex had ~1.1-fold the fluorescence intensity of the mFAP10–DFHBI complex, and the mFAP9–DFHBI-1T complex had ~0.75-fold the fluorescence intensity of the mFAP10–DFHBI-1T complex (Supplementary Fig. 1k). In collecting fluorescence emission spectra by exciting fluorescence at λex = 484 nm and collecting fluorescence emission at λem = 495–650 nm (Supplementary Fig. 6b), and in measuring fluorescence endpoints in techincal triplicate at unique peak excitation and emission wavelengths (Supplementary Fig. 6c), 195 μL of large-scale purified protein[49] was combined with 5.00 μL of 25 mM Tris (pH 8.00) supplemented with 100 mM NaCl and 40.0 μM DFHBI for a final concentration of 10.0 μM protein and 1.00 μM DFHBI.
In measuring fluorescence intensity of small-scale purified proteins[49] (Supplementary Table 1), wells were excited at λex = 488 nm for DFHBI and DFHBI-1T and λex = 505 nm for DFHO, and fluorescence emission measured at λem = 510 nm for DFHBI and DFHBI-1T and λem = 545 nm for DFHO. […]

[2] = In vitro chromophore titration with DFHBI (fluorescence, single-binding site isotherm fit)
Description: Fluorescence endpoints were measured on a Synergy Neo2 hybrid multi-mode reader (BioTek) in flat bottom, black polystyrene, non-binding surface 96-well microplates (Corning 3650). In measuring chromophore-binding affinities (Fig. 1d, e), mFAP2, mFAP2a, and mFAP2b, and mFAP10 were produced by large-scale protein purification and SEC purification. Proteins were aliquoted in eight technical replicates in 200 μL final volumes to 20.0 nM final concentration in ten serial dilutions ( 10 dilution factor) of DFHBI starting from 31.6 μM DFHBI or 31.6 μM DFHBI-1T final concentrations, including an eleventh condition without chromophore. Fluorescence was excited at λex = 468 nm and fluorescence emission measured at λem = 530 nm. Background fluorescence endpoints of wells with identical chromophore concentrations but purified protein replaced with an identical volume of high-salt Tev cleavage buffer were measured, and fluorescence endpoints subtracted from those measured with protein. Background-subtracted data were averaged and the means normalized from 0 to 1 and fit to a single-binding site isotherm function using non-linear least squares fitting to obtain a fitted Kd value (Table 1), and the fit scaled to the maximum mean value (Fig. 1d, e).

B1: mFAP2b: mFAP2.5 with V67I, "b" for bright (protein)
chain: SRAAQLLPGTWQVTMTNEDGQTSQGQWHFQPRSPYTMDIVAQGTISDGRPIVGYGKATVKTPDTLDIDITYPSLGNIKAQGQITMDSPTQFKWDATTKGENDFHGRLTGTLQRQE
brighter than mFAP2.4 [1]: ~ 1.3 fold
brighter than mFAP2.5 [1]: ~ 1.2 fold
higher affinity for DFHBI than DFHBI-1T [2]: ~ 6.1 fold
weaker affinity for DFHBI than the initial mFAP2 design [2]: ~ 10 fold
